Test results as given in IntAct's records for PubMed 10602480.

B1: Death-associated protein kinase 3 (Rattus norvegicus (Rat)), O88764 (parent)
chain: MSTFRQEDVEDHYEMGEELGSGQFAIVRKCQQKGTGMEYAAKFIKKRRLPSSRRGVSREEIEREVSILREIRHPNIITLHDVFENKTDVVLILELVSGGELFDFLAEKESLTEDEATQFLKQILDGVHYLHSKRIAHFDLKPENIMLLDKHAASPRIKLIDFGIAHRIEAGSEFKNIFGTPEFVAPEIVNYEPLGLEADMWSIGVITYILLSGASPFLGETKQETLTNISAVNYDFDEEYFSSTSELAKDFIRRLLVKDPKRRMTIAQSLEHSWIKVRRREDGARKPERRRLRAARLREYSLKSHSSMPRNTSYASFERFSRVLEDVAAAEQGLRELQRGRRQCRERVCALRVAAEQREARCRDGSAGLGRDLRRLRTELGRTEALRTRAQEEARAALLGAGGLKRRLCRLENRYDALAAQVAAEVQFVRDLVRALEQERLQAECGVR
partner: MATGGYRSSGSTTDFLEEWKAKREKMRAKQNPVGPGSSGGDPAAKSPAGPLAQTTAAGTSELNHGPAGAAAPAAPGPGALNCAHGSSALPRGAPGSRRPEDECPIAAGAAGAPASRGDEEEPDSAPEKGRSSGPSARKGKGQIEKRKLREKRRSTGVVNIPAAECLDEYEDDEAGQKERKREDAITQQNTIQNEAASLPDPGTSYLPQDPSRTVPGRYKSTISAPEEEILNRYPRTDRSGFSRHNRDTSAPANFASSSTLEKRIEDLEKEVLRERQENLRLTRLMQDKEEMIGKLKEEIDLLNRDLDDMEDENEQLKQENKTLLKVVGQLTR

Variants of: B1
Conditions: with pawr_rat Pawr
K42A was tested, and the “effect of a mutation on the interaction” value was “disrupting interaction”.
